assay: soluble on expression in E. coli; label from the status in PepcDB or PDB records

Row | Sequence | soluble on expression in E. coli
1 | GEEDLCAAFNVICDNVGKDWRRLARQLKVSDTKIDSIEDRYPRNLTERVRESLRIWKNTEKENATVAHLVGALRSCQMNLVADLVQEVQQARDLQNRSGAMSPMSWNSDASTSEASHHHHHH | soluble
2 | MQSIKGNHLVKVYDYQEDGSVLLTCDAEAKNITWFKDGKMIGFLTEDKKKWNLGSNAKDPRGMYQCKGSQNKSKPLQVYYRMGSADDAKKDAAKKDDAKKDDAKKDGSDGNEEMGGITQTPYKVSISGTTVILTCPQYPGSEILWQHNDKNIGGDEDDKNIGSDEDHLSLKEFSELEQSGYYVCYPRGSKPEDANFYLYLRARV | soluble
3 | MSRDPTLILDESNLVIGKDGRVHYTFTTEDDNPKVRLASKCLGTAHFNQLMIERGDQATSYVAPVVVEGTGNPTGLFKDLKEISLELTDTANSQLWSKIKLTNRGMLQEYYDGKIKTEIVNSARGVATRISEDTDKKLALINDTIDGIRREYRDADRKLSASYQAGIEGLKATMANDKIGLQAEIKASAQGLSQKYDDELRKLSAKITTTSSGTTEAYESKLAGLRAEFTRSNQGTRTELESQISGLRAVQQSTASQISQEIRDREGAVSRVQQSLESYQRRMQDAEENYSSLTHTVRGLQSDVGSPTGKIQSRLTQLAGQIEQRVTRDGVMSIISGAGDSIKLAIQKAGGINAKMSGNEIISAINLNSYGVTIAGKHIALDGNTTVNGTFTTKIAEAIKIRADQIIAGTIDAARIRVINLNASSIVGLDANFIKAKIGYAITDLLEGKVIKARNGAMLIDLNTAKMDFNSDATINFNSKNNALVRKDGTHTAFVHFSNATPKGYTGSALYASIGITSSGDGVNSASSGRFAGLRSFRYATGYNHTAAVDQTEIYGDNVLVVDDFNITRGFKFRPDKMQKMLDMNDLYAAVVALGRCWGHLANVGWNTAHSNFTSAVNRELNNYITKI | not soluble
4 | MGAYLNKPIIEKEKEEGSGNGLSYACTTMQGWRVNQEDAHNCVVDLHTDWHMFGVYDGHGGTEVSKFTSAKLPDFLKERKFWEADDVAECLQKAFVDFDDFIRAEESMKELKDIGDEGKPKKAGGEADSEDEADRIDTIEEASVPLAELLKRYGGAGVGKSLLSAFLAKGDVSDDSEDEDEDEEEAEEQDDTEEKKENEDASAEVVIENAEDKEEEEGSPKKKGQKRCQKSPIQSEAKKSKSETDAETAPSSSSGVDGVATEEEDEDDSDKEFVADEEEDDEDAEDEQSDEEMVDGSLAPLLLGSGGAEVPGEDSGTTACVCLVGKDKVIVANAGDSRAVLCRNGKAVDLSVDHKPEDEVETNRIHAAGGQIEDGRVNGGLNLSRAFGDHAYKKNQELGLKEQMITALPDVKIEALTPEDEFIVVACDGIWNSMESQQVVDFVRDLLAKGSSCAEVCDALCDACLADSTDGDGTGCDNMTVICTTFDRKSK | not soluble
5 | MRERTEARRRRIEEVLRRRQPDLTVLLENVHKPHNLSAILRTCDAVGVLEAHAVNPTGGVPTFNETSGGSHKWVYLRVHPDLHEAFRFLKERGFTVYATALREDARDFREVDYTKPTAVLFGAEKWGVSEEALALADGAIKIPMLGMVQSLNVSVAAAVILFEAQRQRLKAGLYDRPRLDPELYQKVLADWLRK | soluble
6 | MANYPKELPAQTQSRQPGIESEMNPSPVYEYEDYKGADKLKGKVALITGGDSGIGRAVSVAYAKEGADIAIVYKDEHEDAEETKKRVEQEGVKCLLIAGDVGEEEFCNEAVEKTVKELGGLDILVNNAGEQHPKESIKDITSEQLHRTFKTNFYSQFYLTKKAIDYLKPGSAIINTTSINPYVGNPTLIDYTATKGAINAFTRTMAQALVKDGIRVNAVAPGPIWTPLIPATFPEETVAQFGQDTPMGRPGQPVEHVGCYVLLASDESSYMTGQTLHVNGGNFVT | soluble
7 | MNSSPAGTPSPQPSRANGNINLGPSANPNAQPTDFDFLKVIGKGNYGKVLLAKRKSDGAFYAVKVLQKKSILKKKEQSHIMAERSVLLKNVRHPFLVGLRYSFQTPEKLYFVLDYVNGGELFFHLQRERRFLEPRARFYAAEVASAIGYLHSLNIIYRDLKPENILLDCQGHVVLTDFGLCKEGVEPEDTTSTFCGTPEYLAPEVLRKEPYDRAVDWWCLGAVLYEMLHGLPPFYSQDVSQMYENILHQPLQIPGGRTVAACDLLQSLLHKDQRQRLGSKADFLEIKNHVFFSPINWDDLYHKRLTPPFNPNVTGPADLKHFDPEFTQEAVSKSIGCTPDTVASSSGASSAFLGFSYAPEDDDILDC | soluble
8 | MSLEPCWKVGFAETSGCLPKLCIAQLRLPAFCNSEGLFGLFDGETGNGVPNLLVKAIPKILLEERTVKETANDYMKYTLLSAHRELKQRGQQEAVNVTLCHIARSRLPTEAMSYLPQTVASGRKFILRVATVGESSAVLIKHNRCVLLNKGSPARKLGLSANFPVTVPDPEVQEVVLTDADEYLVLGNRKLWEVITMETVAEEIRKEENILLAAKRVQDIAQSYGAEENLSVMIVRFNEGHHHHHH | soluble
9 | MSLSSPRIIATYHLASDADLVAERAKGLAIEQSVECPLAAVGDPVILDTIVGRVEDIAELTPGRYAVRIGLAAATAPAEPGQLINMLFGNSSMQQDVTLVDVELPPSYLAAFGGPRLGLAGLRALTGTQDRALTASALKPQGLSPAALARIAGQLARGGVDVIKDDHGIADQAYSPFAARVEAVGRAVQEANVARDGHSLYAPNLSGTLDDMRRQLDLAREQGIAAVMVAPMIVGLANFHAVVKAAAGMVVIAHPALSGVTRIAPPLLLGKLFRLFGADATIFPNAGGRFGFSTETCLQLARAGRDPWGALEPCMPVPAGGLTADRVAELLQFYGHDVMLLIGGGLLSARERLTEEAARFVNEVAAHGKAEGHHHHHH | soluble
10 | MGHHHHHHSHMENKMESIEQQVEVLLEQEPQLLPAAMAERLGVTEFDVVAALPQEMVAISPGEQAQTILESLVGFGPVTTIVHSFGSIFEVKAPFPKGKVARGYYNLMGREGELHGHLKLDNVKNIALVSKPFMGRESHYFGFFSECGSNIFKVYLGRDEKRELIAEQVTAFRAMQAELNQ | soluble
11 | YYPKIAEEVYLATLDNGMSLSIIKKKGFIEKAAFLSTNFGALDNRFYIDGKLQTYPAGIAHFLEHKLFEDDQGRDVTLDFVKLGADVNAFTTLDRTTYYFSTIDHFEESLELLLKFTSEFTSSEDTVNHEKRIIEQEINMYQDDPDYRVYLGCLQSLYPNTILGQDIAGSIDSIKKITTKDLKNNFDYFYRPENCHLVLIGNFDIEQIYRFVKETRSEFTISHKTVEK | not soluble
12 | MGQEKLLFDQKYKIIKGEKKEKKKNQRANRREHQQKREIMRFKKSFTCIDMHTEGEAARIVTSGLPHIPGSNMAEKKAYLQENMDYLRRGIMLEPRGHDDMFGAFLFDPIEEGADLGIVFMDTGGYLNMCGHNSIAAVTAAVETGIVSVPAKATNVPVVLDTPAGLVRGTAHLQSGTESEVSNASIINVPSFLYQQDVVVVLPKPYGEVRVDIAFGGNFFAIVPAEQLGIDISVQNLSRLQEAGELLRTEINRSVKVQHPQLPHINTVDCVEIYGPPTNPEANYKNVVIFGNRQADRSPCGTGTSAKMATLYAKGQLRIGETFVYESILGSLFQGRVLGEERIPGVKVPVTKDAEEGMLVVTAEITGKAFIMGFNTMLFDPTDPFKNGFTLKQYIWSSSVDKLAAALEHHHHHH | soluble
13 | SLQVNTPQTEETANQAKRHVADYTMDGISATALDERGVTKYRFTGVHMNHYEDDLTYDVTFPALRIYAPDRPQVTARADLGKMNGEGSIIDLYDNAKVVRAQGPDLRQDPLMTADSTYFQVLLNDDVVRTDKPVELHRGPSVMNANGLVFNNVTRQVQLLGNVRGRIEGLGAPKQ | soluble
14 | MAELRVLVAVKRVIDYAVKIRVKPDRTGVVTDGVKHSMNPFCEIAVEEAVRLKEKKLVKEVIAVSCGPAQCQETIRTALAMGADRGIHVEVPPAEAERLGPLQVARVLAKLAEKEKVDLVLLGKQAIDDDCNQTGQMTAGFLDWPQGTFASQVTLEGDKLKVERAIDGGLETLRLKLPAVVTADLRLNEPRYATLPNIMKAKKKKIEVIKPGDLGVDLTSKLSVISVEDPPQRTAGVKVETTEDLVAKLKEIGRI | soluble
15 | MNSDAEMNTEDGGSSPEEFGEADCFSEEEDEEIVLDTSDNDTSYAKEDKKSENEVLDNDLLEAEMNTTIADVQAVLQVDPGVCRILLHKYKWNKESLLERLYEHPDTIAFLIDAQVIPRQQEVIPAGDAECDICCSMDELSGLSCNHRACAECWQAYLTNKIVSDAQSEIECMAPNCKLLIEDEKVLAYIKDPTIIAKYRKMMVASYIEINALLKWCPGVDCGRTVKVSHGEPRLVVCTCGSRFCFSCGQDWHEPVNCRLLKLWMKKCNDDSETSNWINSNTKECPKCMATIEKNGGCNQITCKNTGCKFQFCWMCLGPWTVHANAWYKCNKFDDEASQTARTAQELYRANLTRYLFYYNRYMGHLQSLRLEGKLNKTVKAKMDQMQNLSMSWIDVQFLRKAVDVLSECRNTLMFTYIFAFYLKRDNNSMIFESNQKDLEMETEQLSGLLERDLENEDLLTLKQKVQDTFRYVEHRRKVLLDHCAEGTEQDIWQYNE | not soluble
16 | DDIHLIATSDVLYFKAEEKYVSVYAQQGKGEVQEYLIRTSLKELIGQLNPEQFWQVHRSSVVQVSKISKVNKDFAGRMFVYVGETKLPVSRASQSLFKGM | not soluble
17 | MSDTADSLSARGIPKSELIEDVESWLTKEKLSIEEAEVVLREKYGKYKYVESSMLAQKVRMSEKIPEFENSLSIIDTLIAKRAADESFETTFLLSDDVYTKATVQKPEKVSIWLGANVMVEYDLENARKLLDKNRGSVQKVVDELTNELSYIKDQITTTEVNMSHIVNFGVNKRRAALAVNNGAK | not soluble
18 | MAHHHHHHMSSSVQNHQQTLLQARTHVAARDTTAVAILGAKAGSNGSSQSFRPAAQCLEHTQSSFNQTDISQRPPFIASEAATVSLLRRMEVLDNGRAGSTSDNAAANVVPSHQSVQRQRVTAHTLNKTTLANNDVTGEAPKPPSMAESTLKAGAQRRRIVKSNRNAVASRGPSESLKKCGPAVNVNDDGHRNDSAMAMNVPTQITVAARGGARGRVFHSNPFVTRNGKRFSAQNARRGISTATLSPPHTAITVSDDYSADFSVHDAFDVLSPMTPANPTYQKTLQVQQQQQWHSGSWIYDLNAGANTDSFTDDGSPIEFVVEDFELDDTVLGGTKHNDFGGQASKGGPDRFSTAAASNPDRLRQQNHARWAASRGPTRGATLASGTTATQQAGGARHLTTKSTMGSDPAGPDSPSGVLKERARLAKGVKLHNGPPMIKIPPLALDVINANRKTGKASYKVSHPKPGVVVPDIESSSTECSDMPNNSSLQGNFEALGVKVSNSPLGGRGSIEGRGNDKRVGGVHNGSLLSGSAVDGHRAGAAGSSAYKGSLQNCGRHGMLSMPFDGTSNDSQVHEASPSRNAREGFRGNSGGFGMHGGPFGSVQRQRWLVEADKHSSGESRPPMTNARKKAKCCVVM | not soluble
